# Measured values as given in paper PMC4739419, “Mutations in the nucleotide binding and hydrolysis domains of Helicobacter pylori MutS2 lead to altered biochemical activities and inactivation of its in vivo function” (BMC Microbiology, 2016).
# B1: Helicobacter pylori MutS2 (enzyme, Helicobacter pylori strain 26695, UniProt O25338 1-762, looked up)
# chain: MSDAPKRSLNPTLMMNNNNTPPKPLEESLDLKEFIALFKTFFAKERDTIALENDLKQTFTYLNEVDAIGLPTPKSVKESDLIIIKLTKLGTLHLDEIFEIVKRLHYIVVLQNAFKTFTHLKFHERLNAIVLPPFFNDLIALFDDEGKIKQGANATLDALNESLNRLKKESVKIIHHYARSKELAPYLVDTQSHLKHGYECLLLKSGFSGAIKGVVLERSANGYFYLLPESAQKIAQKIAQIGNEIDCCIVEMCQTLSHSLQKHLLFLKFLFKEFDFLDSLQARLNFAKAYNLEFVMPSFTQKKMILENFSHPILKEPKPLNLKFEKSMLAVTGVNAGGKTMLLKSLLSAAFLSKHLIPMKINAHHSIIPYFKEIHAIINDPQNSANNISTFAGRMKQFSALLSKENMLLGVDEIELGTDADEASSLYKTLLEKLLKQNNQIIITTHHKRLSVLMAENKEVELLAALYDEEKERPTYTFLKGVIGKSYAFETALRYGVPHFLIEKAKTFYGEDKEKLNVLIENSSALERELKQKNEHLENALKEQEYLKNAWLLEMEKQKEIFHNKKLELEKSYQQALNILKSEVASKDTSSMHKEIHKASEILSKHKTNQEIPQIITNFQANEKARYKNESVLIVQILDKGYYWIETELGMRLKAHGSLLKKIQKPPKNKFKPPKTTIPKPKEASLRLDLRGQRSEEALDLLDAFLNDALLGGFEEVLICHGKGSGILEKFVKEFLKNHPKVVSFSDAPINLGGSGVKIVKL
# notes: MutS2 of Helicobacter pylori strain 26695, full length, cloned in pET28b; Tetramer by gel filtration; a small fraction elutes near the void volume as multimers; also called HpMutS2; wild-type HpMutS2
# Legend:
# HpMutS2 = biological target: T1, HpMutS2 (Helicobacter pylori, UniProt O25338); format: biochemical; settings: for support of HpMutS2 ATPase activity by metal ion: metal ion 5 mM, ATP 100 μM, HpMutS2 45 nM, 37 °C, 30 min
# T1 construct: (A) HpMutS2 (1-762): Mol. wt; (kDa): 87.8; His6 (C); made in house; host or cells: E. coli Rosetta (DE3) pLysS
# Method: To delineate the characteristics of the ATPase activity of HpMutS2, we initially determined the metal ion requirement for ATP hydrolysis by HpMutS2. Purified HpMutS2 was incubated with excess of cold ATP (100 μM) with or without metal ions (5 mM each), and ATP hydrolysis monitored by thin layer chromatography using radiolabeled ATP [γ-^32P] as tracer.
# Additional files 1: Figure S1. Multiple sequence alignment of MutS2 proteins from different H. pylori strains. Multiple sequence alignment of MutS2 proteins from different bacteria was carried out using Clustal Omega (http://www.ebi.ac.uk/Tools/msa/clustalo/). The protein sequences were obtained from NCBI protein database. The conserved nucleotide binding Walker-A motif and nucleotde hydrolysis Walker-B motifs are framed. The arrow indicates H. pylori MutS2 protein sequence. Figure S2. ATPase activity of HpMutS2 and variants. (A) Divalent metal ion requirement for ATPase activity of HpMutS2. Mentioned divalent metal ions (5 mM each) were incubated separately with cold ATP (100 μM) with (+) or without (−) HpMutS2 (45 nM). After incubation at 37 °C for 30 min the reactions were stopped by EDTA (50 mM) and the products were separated by TLC. ATP [γ-^32P] was used as tracer to monitor the product formation. (B) Time dependent hydrolysis of ATP by HpMutS2. A mixture of cold ATP (1 mM) and ATP [γ-^32P] was incubated in presence of HpMutS2 (45 nM) at 37 °C . The reaction aliquots were removed at indicated time points. The reactions were stopped by adding EDTA (50 mM) and products were separated by TLC. […] (C) Effect of HpSmr domain deletion on ATPase activity of HpMutS2. Increasing concentrations of proteins were incubated with a mixture of cold ATP (1 mM) and ATP [γ-^32P] at 37 °C for 30 min. The reactions were processed as described in (A). […] Figure S3. Limited proteolysis. Proteins (4 μM) were incubated with chymotrypsin (1.25 ng) for 30 min at 37 °C. The heat denaturation of proteins was performed by heating them at 95 °C for 10 min. […] Reactions were stopped by adding 1X protease inhibitor cocktail (Sigma), heat denatured and the products were separated on SDS-PAGE (10 %). Lane M: Molecular weight marker. Protein bands were detected by staining with Coomassie Brilliant Blue. […]. […] (A-E) Effect of nucleotides on DNA binding properties of HpMutS2. Electrophoretic mobility shift assays were performed with indicated DNA substrates (0.16 nM) without and with nucleotides (1 mM). After incubation for 30 min on ice, the reaction mixture was electrophoresed on polyacrylamide gel (8 %). Schematic representation of DNA substrates used are shown at the left side of autoradiographs. Figure S5. Chase experiments. A preformed ssDNA-HpMutS2 complex was chased with increasing concentrations of (A) ATP (0.25–5 mM) and (B) ssDNA (7.5–500 nM). (C) A preformed SC pUC19 DNA-HpMutS2 complex was chased with increasing concentrations of ATP (0.25–5 mM) . The reactions were performed at 37 °C and the reaction mixture was electrophoresed on PAGE (8 %) in case of (A and B) or an agarose gel (0.8 %) in case of (C). The amount of displaced DNA was estimated by assuming the DNA without protein as 100 %. Figure S6. Western blot. Equal numbers of exponentially growing H. pylori cells were lysed in Laemmli buffer (1X) by boiling at 95 °C for 5 min. The proteins were separated by SDS-PAGE (10 %). The HpMutS2 and mutants were detected by probing with polyclonal antibodies against HpMutS2. Table S1. Sequence of oligonucleotides used to prepare DNA substrates. Table S2. DNA substrates used in this study (* represents position of ^32P). (PDF 636 kb)
# [1] = tested on: Nc1ncnc2c1ncn2[C@@H]1O[C@H](COP(=O)(O)OP(=O)(O)OP(=O)(O)O)[C@@H](O)[C@H]1O; test: purified protein, by the assay type; settings: pH 8.0; 37.0 °C
# [2] = substrate: Nc1ncnc2c1ncn2[C@@H]1O[C@H](COP(=O)(O)OP(=O)(O)OP(=O)(O)O)[C@@H](O)[C@H]1O; test: ATPase assay by thin layer chromatography with [γ-32P]ATP as tracer and cold ATP varied, 50 mM Tris pH 8.0, 50 mM NaCl, 1 mM DTT, 5 mM MgCl2, 37 °C, no DNA, Michaelis-Menten non-linear regression.; format: biochemical
# [3] = biological target: the molecule itself; test: SEC; Superose-6 HR 10/30, buffer B (50 mM Tris pH 8.0, 100 mM NaCl), 0.3 ml/min, approximately 150 ug protein injected; mass from a plot of Ve/Vo versus log of molecular mass of standards
molecule,measurement,setting,value
[Zn+2] [Zn^2+],support of HpMutS2 ATPase activity by metal ion,HpMutS2,allowed the ATPase activity to various extents
HpMutS2-E413A (Helicobacter pylori 26695; E413A),Km,[1],373.2 ± 188.6 µM
same,Vmax,[1],0.19 µM/min
same,kcat,[1],0.0703 ± 0.011 s⁻¹
HpMutS2-G338R (Helicobacter pylori 26695; G338R),Km,[1],939.3 ± 489.2 µM
same,Vmax,[1],0.64 µM/min
same,kcat,[1],0.237 ± 0.0555 s⁻¹
O=C(O)CN(CCN(CC(=O)O)CC(=O)O)CC(=O)O [EDTA],effect on Mg2+ dependent ATPase activity,HpMutS2,inhibited
[Ca+2] [Ca^2+],support of HpMutS2 ATPase activity by metal ion,HpMutS2,allowed the ATPase activity to various extents
[Cd+2] [Cd ^2+],support of HpMutS2 ATPase activity by metal ion,HpMutS2,allowed the ATPase activity to various extents
[Co+2] [Co^2+],support of HpMutS2 ATPase activity by metal ion,HpMutS2,allowed the ATPase activity to various extents
[Mg+2] [Mg^2+],support of HpMutS2 ATPase activity by metal ion,HpMutS2,supported a strong ATPase activity
[Ni+2] [Ni^2+],support of HpMutS2 ATPase activity by metal ion,HpMutS2,did not significantly support the ATPase activity
[Mn+2] [Mn^2+],support of HpMutS2 ATPase activity by metal ion,HpMutS2,allowed the ATPase activity to various extents
[Cu+2] [Cu^2+],support of HpMutS2 ATPase activity by metal ion,HpMutS2,allowed the ATPase activity to various extents
B1,Km,[2],412.1 ± 83.43 µM
same,Vmax,[2],1.88 µM/min
same,kcat,[2],0.696 ± 0.048 s⁻¹
same,stoichiometry N,[3],4
